Assay [1] has as its target Leucine-rich repeat containing, G protein-coupled receptor 5 (LGR5), human, on HEK293T cells (HEK293-LGR5-DeltaC) (human) (UniProt O75473). Nature of the assay: whole-cell binding assay.
Assay [2] deals with Leucine-rich repeat containing, G protein-coupled receptor 4 (LGR4), human, on HEK293T cells (human, UniProt Q9BXB1 25-951). Description: whole-cell binding assay.

Chain of Leucine-rich repeat containing, G protein-coupled receptor 5 (LGR5), human, on HEK293T cells (HEK293-LGR5-DeltaC) (human) (O75473 22-907, stated change not applied): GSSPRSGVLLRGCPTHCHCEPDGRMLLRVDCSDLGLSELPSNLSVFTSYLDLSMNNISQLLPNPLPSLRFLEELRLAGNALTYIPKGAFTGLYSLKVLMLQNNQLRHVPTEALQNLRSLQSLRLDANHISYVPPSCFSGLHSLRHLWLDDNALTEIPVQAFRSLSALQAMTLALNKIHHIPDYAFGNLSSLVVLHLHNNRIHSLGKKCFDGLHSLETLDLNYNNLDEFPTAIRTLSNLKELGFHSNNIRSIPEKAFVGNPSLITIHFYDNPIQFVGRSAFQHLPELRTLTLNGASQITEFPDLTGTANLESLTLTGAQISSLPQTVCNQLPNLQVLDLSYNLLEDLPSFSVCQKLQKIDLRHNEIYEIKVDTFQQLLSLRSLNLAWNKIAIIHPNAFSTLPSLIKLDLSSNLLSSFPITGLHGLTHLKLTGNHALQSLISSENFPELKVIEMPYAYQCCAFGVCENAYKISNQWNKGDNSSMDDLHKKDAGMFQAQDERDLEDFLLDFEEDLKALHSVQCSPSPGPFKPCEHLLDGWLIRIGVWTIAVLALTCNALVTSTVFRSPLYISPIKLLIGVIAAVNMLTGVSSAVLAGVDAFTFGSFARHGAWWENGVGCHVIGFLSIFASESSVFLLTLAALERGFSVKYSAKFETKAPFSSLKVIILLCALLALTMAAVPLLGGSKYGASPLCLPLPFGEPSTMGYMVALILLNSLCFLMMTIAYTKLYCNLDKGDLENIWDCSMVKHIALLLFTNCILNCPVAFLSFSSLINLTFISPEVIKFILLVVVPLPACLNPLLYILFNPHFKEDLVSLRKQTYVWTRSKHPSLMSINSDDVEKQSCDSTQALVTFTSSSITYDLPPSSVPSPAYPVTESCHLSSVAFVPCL

B1: R232, RSPO2 furin domain M68T/Q70R double mutant fused to human IgG1-Fc (Fc fusion)
chain: CKGCLSCSKDNGCSRCQQKLFFFLRREGTRRYGECLHSCPSGYYGHRAPDMNRCARCRIENCDSCFSKDFCTKCKVGFYLHRGRCFDECPDGFAPLEETMEC
Regarding B1, the Kd (commonly the equilibrium constant for the complex coming apart) worked out at 300 pM in assay [1] and 200 pM in assay [2].
